# In patent US20210403602A1 (Bristol-Myers Squibb, published 2021):
# How the values were obtained:
# [1] = molecular target: T1, denatured recombinant human IDO protein with a 6-His tag and thrombin site linker (His-Tb-IDO) (human, UniProt P14902 1-403); experiment: direct ELISA of hybridoma supernatants on plates coated with denatured His-Tb-IDO at 2 ug/mL
# T1 construct: Immunogen and ELISA coating antigen, used in denatured form; also called denatured tagged antigen
# Protocol: After eleven days, hybridoma culture supernatants were collected and screened by direct ELISA for specific binding to denatured His-Tb-IDO. Briefly, 96-well polystyrene microplates (Corning 9018) were coated overnight at 4C with 60 uL of denatured tagged antigen at 2 ug/mL in PBS. The plates were blocked with 200 uL/well of assay buffer containing 0.5% bovine serum albumin in PBS and washed. After the blocking step, 100 uL of supernatant from individual hybridoma culture wells were added and incubated for one hour on a plate shaker at room temperature. The plates were washed three times with PBS and 100 ul of F(ab′)₂ fragment goat anti-mouse IgG Fcγ (1:1000 dilution) (Jackson ImmunoResearch 115-036-071) was added and incubated for 1 hour at RT and washed again with PBS. The plates were then developed with 100 ul/well of ABTS HRP substrate (Surmodics ABTS-1000-01) for 5 to 10 minutes, and analyzed using a PerkinElmer EnVision microplate reader at 405 nm. The data was analyzed using TIBCO Spotfire.
# [2] = molecular target: T2, human Indoleamine 2,3-dioxygenase (IDO) in fixed cells and tissues (human, UniProt P14902 1-403); experiment: immunohistochemistry on FFPE H1048 cells and cervical SCC tissue, HALO image analysis; antibody concentration printed on the sheet as 0.5 ug/ml, given in the legend as 0.05 ug/ml
# T2 construct: also called IDO1; human IDO
# Protocol: To further develop a user and clinical friendly assay, mAb 1E7 was optimized for automated IHC using the Leica BondRX platform. The Bond Polymer Refine Detection System (Leica, catalog #DS9800) was used for the detection of IDO1 and all incubations were carried out at room temperature. Briefly, slides were deparaffinized and rehydrated following routine histology procedures. The slides were loaded onto the Leica BondRX automated IHC stainer and antigen retrieved with either the Bond Epitope Retrieval Solution 1 (Leica, catalog #AR9961) or 2 (Leica, catalog #AR9640) for 20 minutes at 95° C. Peroxidase block from the Bond Polymer Refine Detection kit (Leica, catalog #DS9800) was applied to the slides for 10 min, followed by non-specific binding blocking using protein block (Agilent-DAKO, catalog #X0909) supplemented with 0.5% human gamma globulins (Sigma, catalog #G-4386) for 20 min. Primary antibody 1E7 was incubated at 0.03 or 0.05 μg/ml for 60 minutes, and followed by rabbit anti-mouse linker and then anti-rabbit Poly-HRP-IgG from the Bond Polymer Refine Detection Kit for 30 min each step. […] Whole slide digital images of stained slides were captured and viewed using Aperio AT2 ScanScope and e-Slide Manager (Leica), and then analyzed by a pathologist for manual score or with Halo software (Indica) for quantitative image analysis.
# T2 sequence (P14902 whole entry): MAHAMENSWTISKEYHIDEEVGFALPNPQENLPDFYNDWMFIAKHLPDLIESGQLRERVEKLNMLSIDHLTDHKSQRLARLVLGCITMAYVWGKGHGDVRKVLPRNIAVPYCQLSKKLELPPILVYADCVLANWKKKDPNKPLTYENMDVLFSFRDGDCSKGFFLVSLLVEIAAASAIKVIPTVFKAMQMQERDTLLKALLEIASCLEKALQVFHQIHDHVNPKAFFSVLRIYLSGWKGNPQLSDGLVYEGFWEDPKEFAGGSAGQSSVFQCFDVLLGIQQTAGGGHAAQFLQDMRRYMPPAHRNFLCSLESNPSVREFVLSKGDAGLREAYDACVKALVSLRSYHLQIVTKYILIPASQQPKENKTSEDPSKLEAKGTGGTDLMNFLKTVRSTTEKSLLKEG
# T1 sequence (P14902 other isoform, or with tags, fused parts or gaps limits assumed): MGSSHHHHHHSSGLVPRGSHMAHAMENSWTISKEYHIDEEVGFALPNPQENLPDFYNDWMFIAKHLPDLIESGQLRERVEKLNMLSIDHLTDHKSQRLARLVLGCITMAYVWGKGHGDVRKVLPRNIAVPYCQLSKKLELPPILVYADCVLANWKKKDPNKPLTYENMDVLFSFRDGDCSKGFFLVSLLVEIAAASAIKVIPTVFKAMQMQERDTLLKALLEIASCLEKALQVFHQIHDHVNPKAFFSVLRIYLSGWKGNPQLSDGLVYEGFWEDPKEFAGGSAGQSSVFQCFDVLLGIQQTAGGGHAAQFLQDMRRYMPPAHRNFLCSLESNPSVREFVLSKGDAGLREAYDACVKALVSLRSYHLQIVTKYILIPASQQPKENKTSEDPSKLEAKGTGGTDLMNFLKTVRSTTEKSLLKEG
binder,measurement,setting,value
"anti-IDO monoclonal antibody 1E7 (antibody, mouse IgG1, kappa, V domains shown, also called mAb 1E7; IDO mAb 1E7) VH: QVQLQQSGAELAKPGASVKMSCKTSGYTFTSYWMHWVKQRPGQGLEWIGYINPTTGYTDCNQKFKDKATLTADKSSNTAYLQLSSLTSEDSAVYYCARSAMFGRGWGQGTTLTVSS VL: not shown",binding result,[1],binds
same,binding result,[2],binds
